The target of test [1] is T1, monomeric human CD19 Fc(kih) fusion protein (human, UniProt P0DOX5 223-449 = IgG part).
T1 construct: Heterodimeric Fc fusion with a single copy of the CD19 ectodomain; Part of the preparation was biotinylated at the Avi tag; the SPR text speaks of 'purified monomeric CD19-Fc' as analyte without saying whether it was biotinylated; also called monomeric CD19-Fc; human CD19-Fc fusion protein
Put plainly: SPR ProteOn XPR36, Fab from bacterial supernatant captured by anti-human Fab, monomeric CD19-Fc as analyte. Here is the method: In order to further characterize the ELISA-positive clones, the off-rate was measured by surface plasmon resonance using a ProteOn XPR36 machine and compared with the parental humanized clone 8B8.
For this experiment, 7000 RU of polyclonal anti-human Fab antibody were immobilized on all 6 channels of a GLM chip by Amine coupling (NaAcetate pH4.5, 25 μl/min, 240 s) (vertical orientation). Each antibody-containing bacterial supernatant was filtered and 2-fold diluted with PBS, and then injected for 360 s at 25 μl/minute to achieve immobilization levels of between 100 and 400 response units (RU) in vertical orientation. Injection of monomeric CD19-Fc: For one-shot kinetics measurements, injection direction was changed to horizontal orientation, three-fold dilution series of purified monomeric CD19-Fc (varying concentration ranges between 150 and 6 nM) were injected simultaneously at 50 μl/min along separate channels 1-4, with association times of 180 s, and dissociation times of 300 s. […] Dissociation rate constants (koff) were calculated using a simple one-to-one Langmuir binding model in ProteOn Manager v3.1 software by simultaneously fitting the sensorgrams. […] Of note, the dissociation rate constants of clones 5A07 and 5B08 could not be determined due to inadequate fitting. […]

Test [2] concerns the target T1, monomeric human CD19 Fc(kih) fusion …. In words: SPR ProteOn XPR36, 25 C, IgG from HEK supernatant captured by anti-human Fab, monomeric CD19-Fc as analyte. As to the method:
The Affinity (KD) of the parental antibody 8B8 as well as it derivatives was measured by SPR using a ProteOn XPR36 instrument (Biorad) at 25° C. 7000 RU of polyclonal anti-human Fab antibody were immobilized on all 6 channels of a GLM chip by Amine coupling (NaAcetate pH4.5, 25 ul/min, 240 s) (vertical orientation). Each antibody-containing HEK supernatant was filtered, diluted with PBST (10 mM phosphate, 150 mM sodium chloride pH 7.4, 0.005% Tween 20) to a concentration of 10 ug/ml, and then injected at a for 360 s at 25 μl/minute to achieve immobilization levels between 500 and 800 response units (RU) in vertical orientation. Injection of monomeric CD19-Fc: For one-shot kinetics measurements, injection direction was changed to horizontal orientation, three-fold dilution series of purified monomeric CD19-Fc (varying concentration ranges between 150 and 6 nM) were injected simultaneously at 50 μl/min along separate channels 1-4, with association times of 180 s, and dissociation times of 300 s. A human IgG Fc fragment (150 nM) was injected in channel 5 as a negative control for specific binding to monomeric CD19-Fc. Buffer (PB ST) was injected along the sixth channel to provide an “in-line” blank for referencing. Regeneration was performed by two pulses of 10 mM glycine pH 1.5 and 50 mM NaOH for 30 s at 90 ul/min (vertical orientation). Association rate constants (kₒₙ) and dissociation rate constants (koff) were calculated using a simple one-to-one Langmuir binding model in ProteOn Manager v3.1 software by simultaneously fitting the association and dissociation sensorgrams. The equilibrium dissociation constant (KD) was calculated as the ratio koff/kₒₙ. The dissociation constant of all affinity-matured clones was improved compared to their parental clone 8B8.

Test [3] concerns the target T2, human CD19 on WSU-DLCL2 cells (human, UniProt P15391 20-556).
T2 construct: Endogenous CD19 of the B-cell non-Hodgkin lymphoma line WSU-DLCL2; also called CD19+ WSU-DLCL2; human CD19-expressing tumor cells
T2 sequence: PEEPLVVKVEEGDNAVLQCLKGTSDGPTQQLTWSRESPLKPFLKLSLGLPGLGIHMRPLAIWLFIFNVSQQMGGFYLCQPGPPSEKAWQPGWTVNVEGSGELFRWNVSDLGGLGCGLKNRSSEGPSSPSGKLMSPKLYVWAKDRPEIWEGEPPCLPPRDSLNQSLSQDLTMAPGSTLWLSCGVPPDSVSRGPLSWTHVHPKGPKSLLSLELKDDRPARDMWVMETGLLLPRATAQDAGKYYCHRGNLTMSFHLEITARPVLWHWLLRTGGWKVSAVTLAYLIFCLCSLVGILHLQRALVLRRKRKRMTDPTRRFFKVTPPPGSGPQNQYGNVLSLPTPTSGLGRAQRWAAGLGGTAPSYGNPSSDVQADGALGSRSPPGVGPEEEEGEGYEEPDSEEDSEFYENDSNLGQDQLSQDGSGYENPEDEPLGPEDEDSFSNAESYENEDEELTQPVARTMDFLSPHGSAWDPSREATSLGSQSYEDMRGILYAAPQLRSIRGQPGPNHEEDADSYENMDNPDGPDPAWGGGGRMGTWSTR
In words: flow cytometry on CD19+ WSU-DLCL2 cells, PE anti-human IgG F(ab')2 detection. As to the method:
0.1×10⁶ tumor cells resuspended in DPBS (Gibco by Life Technologies, Cat. No. 14190 326) were added to each well of a round-bottom suspension cell 96-well plate (greiner bio-one, cellstar, Cat. No. 650185). Cells were washed once with 200 μL DPBS. Cells were resuspended in 100 μL/well of 4° C. cold DPBS buffer containing 1:5000 diluted Fixable Viability Dye eFluor 660 (eBioscience, Cat. No. 65-0864-18) and plates were incubated for 30 minutes at 4° C. Cells were washed once with 200 μL/well 4° C. cold DPBS buffer and resuspended in 50 μL/well of 4° C. cold FACS buffer (DPBS supplied with 2% FBS, 5 mM EDTA pH8 (Amresco, Cat. No. E177) and 7.5 mM Sodium azide (Sigma-Aldrich S2002)) containing the CD19 binders at a series of concentrations, followed by incubation for 1 hour at 4° C. After extensive washing, cells were further stained with 50 μL/well of 4° C. cold FACS buffer containing 5 μg/mL PE-conjugated AffiniPure anti-human IgG F(ab′)2-fragment-specific goat F(ab′)2 fragment (Jackson ImmunoResearch, Cat. No. 109 116 098) for 30 minutes at 4° C. Cells were then washed twice with 200 μL/well 4° C. FACS buffer and cells were fixed in 50 μL/well DPBS containing 1% Formaldehyde (Sigma, HT501320-9.5L). Cells were resuspended in 100 μL/well FACS-buffer and acquired using the FACS LSR II (BD Biosciences). Data was analyzed using FlowJo V10 (FlowJo, LLC) and GraphPad Prism 6.04 (GraphPad Software, Inc).
On the technique in general: Flow cytometry measures light scatter and fluorescence of single cells or particles in a stream.

The values that follow come from patent US20230312710A1 (Hoffmann-La Roche, published 2023).

B1: parental humanized anti-CD19 clone 8B8, Fab in bacterial supernatant (Fab, V domains shown)
VH: QVQLVQSGAEVKKPGASVKVSCKASGYTFTDYIMHWVRQAPGQGLEWMGYINPYNDGSKYTEKFQGRVTMTSDTSISTAYMELSRLRSDDTAVYYCARGTYYYGSALFDYWGQGTTVTVSS
VL: DIVMTQTPLSLSVTPGQPASISCKSSQSLENSNGNTYLNWYLQKPGQSPQLLIYRVSKRFSGVPDRFSGSGSGTDFTLKISRVEAEDVGVYYCLQLTHVPYTFGQGTKLEIK
notes: Soluble Fab expressed from the phagemid in bacterial supernatant (Flag-tagged); also called Parental 8B8; CD19 (8B8)
In the case of B1, the koff (commonly the first-order rate constant of dissociation) in test [1] is 0.000301 s⁻¹.

B2: anti-CD19 clone 8B8 in P329GLALA human IgG1 format (antibody, V domains shown)
VH: QVQLVQSGAEVKKPGASVKVSCKASGYTFTDYIMHWVRQAPGQGLEWMGYINPYNDGSKYTEKFQGRVTMTSDTSISTAYMELSRLRSDDTAVYYCARGTYYYGSALFDYWGQGTTVTVSS
VL: DIVMTQTPLSLSVTPGQPASISCKSSQSLENSNGNTYLNWYLQKPGQSPQLLIYRVSKRFSGVPDRFSGSGSGTDFTLKISRVEAEDVGVYYCLQLTHVPYTFGQGTKLEIKR
notes: also called Parental 8B8; parental antibody 8B8
As for B2, in test [2], the Kd – broadly, the equilibrium constant for the complex coming apart – was 2360 pM; the koff was 0.000134 s⁻¹; the kon (in general, a measure of how fast the partners come together) is 56600 M⁻¹ s⁻¹.

B3: anti-CD19 clone 5B08 in P329GLALA human IgG1 format (antibody, V domains shown)
VH: QVQLVQSGAEVKKPGASVKVSCKASGYTFTDYIMHWVRQAPGQGLEWMGYINPYNDGSKYTEKFQGRVTMTSDTSISTAYMELSRLRSDDTAVYYCARGTYYYGPQLFDYWGQGTTVTVSS
VL: DIVMTQTPLSLSVTPGQPASISCKSSQSLETSTGNTYLNWYLQKPGQSPQLLIYRVSKRFSGVPDRFSGSGSGTDFTLKISRVEAEDVGVYYCLQLDSYPNTFGQGTKLEIKR
notes: also called CD19 (8B8-5B08)
In the case of B3, the response in test [3] was half-maximal at 14 pM (EC50).

B4: anti-CD19 clone 2B11 in P329GLALA human IgG1 format (antibody, V domains shown)
VH: QVQLVQSGAEVKKPGASVKVSCKASGYTFTDYIMHWVRQAPGQGLEWMGYINPYNDGSKYTEKFQGRVTMTSDTSISTAYMELSRLRSDDTAVYYCARGTYYYGPQLFDYWGQGTTVTVSS
VL: DIVMTQTPLSLSVTPGQPASISCKSSQSLETSTGTTYLNWYLQKPGQSPQLLIYRVSKRFSGVPDRFSGSGSGTDFTLKISRVEAEDVGVYYCLQLLEDPYTFGQGTKLEIKR
notes: also called CD19 (8B8-2B11)
For B4, the midpoint of the response in test [3], the EC50, lay at 34 pM.

B5: anti-CD19 clone 7H07 in P329GLALA human IgG1 format (antibody, V domains shown)
VH: QVQLVQSGAEVKKPGASVKVSCKASGYTFTDYIMHWVRQAPGQGLEWMGYINPYNDGSKYTEKFQGRVTMTSDTSISTAYMELSRLRSDDTAVYYCARGTYYYGSELFDYWGQGTTVTVSS
VL: DIVMTQTPLSLSVTPGQPASISCKSSQSLETSTGNTYLNWYLQKPGQSPQLLIYRVSKRFSGVPDRFSGSGSGTDFTLKISRVEAEDVGVYYCLQATHIPYTFGQGTKLEIKR
notes: also called CD19 (8B8-7H07)
In the case of B5, the EC50 (usually the concentration that produces a half-maximal response) in test [3] amounted to 34 pM.

B6: anti-CD19 clone 5H09 in P329GLALA human IgG1 format (antibody, V domains shown)
VH: QVQLVQSGAEVKKPGASVKVSCKASGYTFTDYIMHWVRQAPGQGLEWMGYINPYNDGSKYTEKFQGRVTMTSDTSISTAYMELSRLRSDDTAVYYCARGTYYYGSALFDYWGQGTTVTVSS
VL: DIVMTQTPLSLSVTPGQPASISCKSSQSLESSTGNTYLNWYLQKPGQSPQLLIYRVSKRFSGVPDRFSGSGSGTDFTLKISRVEAEDVGVYYCLQLIDYPVTFGQGTKLEIKR
notes: also called CD19 (8B8-5H09)
In test [3], B6 gave an EC50 of 20 pM.

B7: anti-CD19 clone 2B03 in P329GLALA human IgG1 format (antibody, V domains shown)
VH: QVQLVQSGAEVKKPGASVKVSCKASGYTFTDYITHWVRQAPGQGLEWMGYINPYNDGSKYTEKFQGRVTMTSDTSISTAYMELSRLRSDDTAVYYCARGTYYYGPDLFDYWGQGTTVTVSS
VL: DIVMTQTPLSLSVTPGQPASISCKSSQSLETSTGNTYLNWYLQKPGQSPQLLIYRVSKRFSGVPDRFSGSGSGTDFTLKISRVEAEDVGVYYCLQLTHVPYTFGQGTKLEIKR
notes: also called CD19 (8B8-2B03)
As to B7, the EC50 in test [3] stood at 41 pM.
